Measured values: patent US20230134580A1

Legend:
[1] = biological target: human TIGIT (T cell immunoreceptor with Ig and ITIM domains), expressed on cells (human) (UniProt Q495A1); assay: cell-based or functional assay
[2] = biological target: recombinant cynomolgus TIGIT (cynomolgus monkey); assay: ELISA on recombinant cyno-TIGIT
[3] = biological target: human TIGIT (T cell immunoreceptor with Ig and ITIM domains), expressed on cells (human) (UniProt Q495A1); assay: whole cell binding assays, n=3 (FIG. 10A)
[4] = biological target: recombinant human TIGIT extracellular domain (ECD) (human) (UniProt Q495A1); assay: ELISA on recombinant human TIGIT ECD
Chain of recombinant human TIGIT extracellular domain (ECD) (human) (Q495A1 22-138 limits assumed): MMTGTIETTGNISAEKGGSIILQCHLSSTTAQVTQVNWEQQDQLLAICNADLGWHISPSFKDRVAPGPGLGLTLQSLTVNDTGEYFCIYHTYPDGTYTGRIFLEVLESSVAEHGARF

[5] = biological target: human TIGIT (T cell immunoreceptor with Ig and ITIM domains), expressed on cells (human) (UniProt Q495A1); assay: flow cytometry (CytoFlex), whole cell binding to cells expressing human TIGIT, MFI of AlexaFlour 488; one representative of three experiments

Chain of human TIGIT (T cell immunoreceptor with Ig and ITIM domains), expressed on cells (human) (Q495A1 22-244 limits assumed): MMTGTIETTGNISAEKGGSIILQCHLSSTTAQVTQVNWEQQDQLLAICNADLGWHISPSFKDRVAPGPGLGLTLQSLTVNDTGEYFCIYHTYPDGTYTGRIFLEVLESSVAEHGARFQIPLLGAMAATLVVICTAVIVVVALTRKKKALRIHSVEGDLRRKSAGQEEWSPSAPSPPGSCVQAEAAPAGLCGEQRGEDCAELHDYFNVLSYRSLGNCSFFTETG

EC50, NFAT luciferase reporter assay (n=3) [1]: 0.72 nM
EC50 (read off the curve) [2]: 0.1 µg/mL
EC50 [3]: 0.61 nM
EC50 (read off the curve) [4]: 0.1 µg/mL
EC50 (read off the curve) [5]: 0.5 nM
Substance: Reference Ab 2 (same amino acid sequences as Tiragolumab, U.S. 2017/0088613 A1) (antibody)
